For 36 molecules, IC50 and Kd results are on record in patent US20030059769, “High affinity nucleic acid ligands to lectins” (published 2003).

Changes are numbered by the printed parent chain.

To fix the notation:
B1: PF422s1 (ssRNA)
RNA: GAAUCCGGAACACGCGAGAAAACAAAUCAACGACCAAUCGAUUCG
modifications: 2'-F C and U
B2: PF380 (ssRNA)
RNA: GGGAGACAAGAAUAAACGCUCAACGAGCAAAAGUACUCACGGGACCAGGAGAUCAGCAACACGCGAGACGAAAUUCGACAGGAGGCUCACAACAGGC
modifications: 2'-F C and U
B3: PF422 (ssRNA)
RNA: GGGAGACAAGAAUAAACGCUCAACGUCAAGCCAGAAUCCGGAACACGCGAGAAAACAAAUCAACGACCAAUCGAUUCGACAGGAGGCUCACAAAGGC
modifications: 2'-F C and U
B4: PF373s1 (ssRNA)
RNA: CUCAACGAAUCAGUAAACAUAACACCAUGAAACAUAAAUAGCACGCGAG
modifications: 2'-F C and U
B5: PF377s1 (ssRNA)
RNA: CUCAACGAGCCAGGAACAUCGACGUCAGCAAACGCGAG
modifications: 2'-F C and U
B6: PF377M5 (ssRNA)
RNA: B5 RNA
modifications: 2'-F C and U; 2'-OMe G 7,9,14 and A 8,15,18,27,31
B7: PF377s1-5'NH2 (ssRNA)
RNA: B5 RNA
modifications: 2'-F C and U, 5' NH2
B8: PF381 (ssRNA)
RNA: GGGAGACAAGAAUAAACGCUCAAAGGAUCACACAAACAUCGGUCAAUAAAUAAGUAUUGAUAGCGGGGAUAUUCGACAGGAGGCUCACAACAGGC
modifications: 2'-F C and U
B9: PF377L1 (ssRNA)
RNA: CUCAACGAGCCAGGACUACGAUCAGCAAACGCGAG
modifications: 2'-F C and U
B10: PA341 (ssRNA)
RNA: GGGAGACAAGAAUAAACGCUCAAGCCCCAAACGCAAGCGAGCAUCCGCAACAGGGAAGAAGACAGACGAAUGAUUCGACAGGAGGCUCACAACAGGC
modifications: 2'-NH2 C and U
B11: PF411 (ssRNA)
RNA: GGGAGACAAGAAUAAACGCUCAACAACCCAACCAUCUAGAGCUUCGAACCAUGGUAUACAAGGGAACACAAAAUUCGCGGAGGCUCCAACAGGCGGC
modifications: 2'-F C and U
B12: PF387s1 (ssRNA)
RNA: CUCAACGCACCAGGAACAACGAGAACCAUCAGUAAACGCGAG
modifications: 2'-F C and U
B13: PF383s1 (ssRNA)
RNA: B12 RNA with G21A, A36G
modifications: 2'-F C and U
B14: PA328 (ssRNA)
RNA: GGGAGACAAGAAUAAACGCUCAAGCAAAAGGCGUAAAUACACCUCCGCAACUGGGAAGAAGACGCAGGGACGGUUCGACAGGAGGCUCACAACAGGC
modifications: 2'-NH2 on all C and U [2'-NH2 on all C and U; N83 in fixed region = A]
B15: PA337 (ssRNA)
RNA: GGGAGACAAGAAUAAACGCUCAAACAGCUACAAGUGGGACAACAGGGUACAGCGGAGAGAAACAUCCAAACAAGUUCGACAGGAGGCUCACAACAGGC
modifications: 2'-NH2 on all C and U
B16: PA338 (ssRNA)
RNA: GGGAGACAAGAAUAAACGCUCAAUCAAGUAAGGAGGAAGGGUCGUGACAGAAAAACGAGCAAAAAACGCGAGUUCGACAGGAGGCUCACAACAGGC
modifications: 2'-NH2 on all C and U
B17: PA341 (ssRNA)
RNA: B10 RNA
modifications: 2'-NH2 on all C and U
B18: PA477 (ssRNA)
RNA: B10 RNA with C38U
modifications: 2'-NH2 on all C and U [2'-NH2 on all C and U; n18 in fixed region = G]
B19: PA330 (ssRNA)
RNA: GGGAGACAAGAAUAAACGCUCAAAACGCACAAAGUAAGGGACGGGAUGGAUCGCCCUAGGCUGGAAGGGAACUUCGACAGGAGGCUCACAACAGGC
modifications: 2'-NH2 on all C and U
B20: PA447 (ssRNA)
RNA: GGGAGACAAGAAUAAACGCUCAAAACAGAACUGAUCGGCGCAGGUUGAUAAAGGGGCAGCGCGAAGAUCACAAUUCGACAGGAGGCUCACAACAGGC
modifications: 2'-NH2 C and U
B21: PA325 (ssRNA)
RNA: GGGAGACAAGAAUAAACGCUCAAACGAGAGCACCAAGGCAACAGAUGCAGAAGAAGUGUGCGCGCGCGAAAUUCGACAGGAGGCUCACAACAGGC
modifications: 2'-NH2 C and U
B22: PA319 (ssRNA)
RNA: GGGAGACAAGAAUAAACGCUCAAAGUCGGGGAUAGAAACACACUAAGAAGUGCAUCAGGUAGGAGAUAAUUCGACAGGAGGCUCACAACAGGC
modifications: 2'-NH2 C and U [all C and U 2'-NH2]
B23: PA463 (ssRNA)
RNA: GGGAGACAAGAAUAAACGCUCAAGGGAAACGGAAAGGGACAAGGCGAACAGACGAGAAGUAGACGGAGUAGGAUUCGACAGGAGGCUCACAACAGGC
modifications: 2'-NH2 C and U
B24: PA329 (ssRNA)
RNA: GGGAGACAAGAAUAAACGCUCAAGAAGGAUACUUAGGACUACGUGGGAUGGGAUGAAAUGGGAGAACGGGAGUUCGACAGGAGGCUCACAACAGGC
modifications: 2'-NH2 C and U
B25: PA351 (ssRNA)
RNA: GGGAGACAAGAAUAAACGCUCAAUGAUAGCACAGUGUAUAAGAAAACGCAACACCGCGCGCGGAAAGAGUUCGACAGGAGGCUCACAACAGGC
modifications: 2'-NH2 C and U
B26: PA301 (ssRNA)
RNA: GGGAGACAAGAAUAAACGCUCAAACACAAAUCGGGCAGGGACUGGGUUGGGCACGGCAGGGCGCCUUCGACAGGAGGCUCACAACAGGC
modifications: 2'-NH2 C and U
B27: PA336 (ssRNA)
RNA: GGGAGACAAGAAUAAACGCUCAAGAUCAUAACGAGAGGAGAGGGAGAACUACACGCGCGCGAGGAAAGAGUUCGACAGGAGGCUCACAACAGGC
modifications: 2'-NH2 C and U
B28: PA320 (ssRNA)
RNA: GGGAGACAAGAAUAAACGCUCAAGAGUAUCACACAAACCGGCACGGACUAAGCAGAAGGAGGUACGGAAGAUUCGACAGGAGGCUCACAACAGGC
modifications: 2'-NH2 C and U
B29: PA335 (ssRNA)
RNA: GGGAGACAAGAAUAAACGCUCAAUGAUAUACACGUAAGCACUGAACCAGGCUGAGAUCCAUCAGUGCCCAGGUUCGACAGGAGGCUCACAACAGGC
modifications: 2'-NH2 C and U
B30: PA352 (ssRNA)
RNA: GGGAGACAAGAAUAAACGCUCAAGAUCAUCGCAGUAUCGGAAUCGACCCUCAGUGGGUGACAUGCGGACAAGUUCGACAGGAGGCUCACAACAGGC
modifications: 2'-NH2 C and U
B31: PA327 (ssRNA)
RNA: GGGAGACAAGAAUAAACGCUCAAUAAGACAACGAACAGACAGAAGCGAAAAAGGGGCGCCGCAGCAACAACAAAUUCGACAGGAGGCUCACAACAGGC
modifications: 2'-NH2 C and U
B32: PA353 (ssRNA)
RNA: GGGAGACAAGAAUAAACGCUCAAGUACCGGGAAGGGAUGAACUGGGAUAUGGGAACGGAGGUCAGAGGCACGAUUCGACAGGAGGCUCACAACAGGC
modifications: 2'-NH2 C and U
B33: PA315 (ssRNA)
RNA: GGGAGACAAGAAUAAACGCUCAAUAACAAAGCAGCAAAGUACCAGAGGAGAGUUGGCAGGGUUUAGGCAGCUUCGACAGGAGGCUCACAACAGGC
modifications: 2'-NH2 C and U
B34: PA354 (ssRNA)
RNA: GGGAGACAAGAAUAAACGCUCAAGCAAUGGAACGCUAGGAGGGAACAUAAGCAGGGCGAGCGGAGUCGAUAGCUUCGACAGGAGGCUCACAACAGGC
modifications: 2'-NH2 C and U
B35: PA342 (ssRNA)
RNA: GGGAGACAAGAAUAAACGCUCAACCAACGCGCACCCCGCAGCAAACGAAAUUGGGGAGACAGGUGCAAGACAGUUCGACAGGAGGCUCACAACAGGC
modifications: 2'-NH2 C and U
B36: PA318 (ssRNA)
RNA: GGGAGACAGAAUAAACGCUCAAAGACCAAGGGACAGCAGCGGGGAAAAACAGAUCACAGCUGUAAGAGGGCUUCGACAGGAGGCUCACAACAGGC
modifications: 2'-NH2 C and U

T1 sequence (P16109 42-321, one chain of several): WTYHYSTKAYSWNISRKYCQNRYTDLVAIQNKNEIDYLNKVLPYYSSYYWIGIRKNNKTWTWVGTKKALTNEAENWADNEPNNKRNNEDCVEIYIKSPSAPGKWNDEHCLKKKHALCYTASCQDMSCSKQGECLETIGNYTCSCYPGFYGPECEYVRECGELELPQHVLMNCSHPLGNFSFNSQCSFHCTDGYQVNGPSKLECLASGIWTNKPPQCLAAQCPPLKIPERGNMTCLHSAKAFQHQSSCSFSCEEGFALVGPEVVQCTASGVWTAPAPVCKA

The target of one data set is T1, P-selectin (PS-Rg) (Homo sapiens, UniProt P16109 P16109:42-321). Briefly: inhibition; sialyl-LewisX. The conditions noted are these: tags: human IgG Fc fusion; chain copies: 2 (stated dimer). As to the method:
The ability of evolved RNA pools or cloned ligands to inhibit the binding of PS-Rg to sialyl-Lewis^x was tested in competitive ELISA assays (C. Foxall et al., 1992, supra). For these assays, the wells of Corning (25801) 96 well microtiter plates were coated with 100 ng of a sialyl-Lewis^x/BSA conjugate, air dried overnight, washed with 300 μl of PBS(−) and then blocked with 1% BSA in HSMC for 60 min at room temperature. RNA ligands were incubated with PS-Rg in HSMC/1% BSA at room temperature for 15 min. After removal of the blocking solution, 50 μl of PS-Rg (10 nM) or a PS-Rg (10 nM)/RNA ligand mix was added to the coated, blocked wells and incubated at room temperature for 60 minutes. The binding solution was removed, wells were washed with 300 μl of PBS(−) and then probed with HRP conjugated anti-human IgG, at room temperature to quantitate PS-Rg binding. After a 30 minute incubation at room temperature in the dark with OPD peroxidase substrate (Sigma P9187), the extent of PS-Rg binding and percent inhibition was determined from the OD₄₅₀.
As for B1, the concentration for half-maximal inhibition (IC50) (as a rule, the concentration needed to halve the response being measured) came to 8 nM. The same measure, in the same setting: the figure for B2 is 4 nM.

B3: the IC50 worked out at 3 nM. The same measure, in the same setting: the figure for B4 is 3 nM; for B5 it is 2 nM. Same read-out and setting: the figure for B6 is 2 nM; for B7 it is 2 nM. Still for that read-out and setting: the figure for B8 is 1 nM; for B9 it is 4 nM. Molecule B10 displayed an IC50 of 3 nM.

Turning to B11, the midpoint of inhibition, the IC50, lay at 2 nM.

The molecule B12 displayed an IC50 of 2 nM. Turning to B13, inhibition was half-maximal at 25 nM (IC50).

Another data set deals with T1, P-selectin (PS-Rg). Briefly: filter; 37 C. Particulars: tags: human IgG1 Fc fusion; chain copies: dimer; label: 32P.
In the case of B14, the Kd – broadly, the free concentration of one partner at which half of the binding sites on the other are occupied at equilibrium, for simple one-to-one binding – is 3 nM. Still for that read-out and setting: the figure for B15 is 4.5 nM; for B16 it is 57 nM; for B17 it is 0.44 nM.

Molecule B18 returned a Kd of 0.57 nM.

As to B19, the Kd stood at 0.237 nM.

Staying with this data set, now noted: tags: human IgG Fc fusion; chain copies: 2 (stated dimer).
In turn, B20 yielded a Kd of 50 nM. On the same count and under the same terms, the figure for B21 is above 10 nM. Turning to B22, the Kd was determined as 11 nM. Same read-out and setting: the figure for B23 is 8 nM; for B24 it is 4 nM; for B25 it is 2 nM. On the same count and under the same terms, the figure for B26 is 2.5 nM; for B27 it is 15 nM; for B28 it is 4.5 nM. Still for that read-out and setting: the figure for B29 is 10.5 nM. As for B30, binding was characterised by a dissociation constant (Kd) of 6 nM. On the same count and under the same terms, the figure for B31 is 13.5 nM.

With B32, the Kd was 9 nM. The molecule B33 came in with a Kd of 5 nM.

The molecule B34 gave a Kd of 5 nM.

The molecule B35 registered a Kd of 4 nM. Same read-out and setting: the figure for B36 is 2 nM.
